Assay results taken from patent US6071715, “Nucleic acids encoding novel proteins which bind to retinoblastoma protein” (Board of Regents, The University of Texas System, dated 2000).

Target: p56Rb, carboxyl terminus of the Rb protein (Homo sapiens (Human), UniProt P06400)
Assay: native polyacrylamide gel of the purified proteins, silver stain

B1: chimeric p48 protein containing a modified C-terminus, encoded by plasmid pET-48NB (other)
chain: MADKEAAFDDAVEERVINEEYKIWKKNTPFLYDLVMTHALEWPSLTAQWLPDVTRPEGKDFSIHRLVLGTHTSDEQNHLVIASVQLPNDDAQFDASHYDSEKGEFGGFGSVSGKIEIEIKINHEGEVNRARYMPQNPCIIATKTPSSDVLVFDYTKHPSKPDPSGECNPDLRLRGHQKEGYGLSWNPNLSGHLLSASDDHTICLWDISAVPKEGKVVDAKTIFTGHTAVVEDVSWHLLHESLFGSVADDQKLMIWDTRSNNTSKPSHSVDAHTAEVNCLSFNPYSEFILATGSADKTVALWDLRNLKLKLHSFESHKDEIFQVQWSPHNETILASSGTDRRLNVWDLSKIGEEQSPEDAEDGPPELLFIHGGHTAKISDFSWNPNEPWVICSVSEDNIMQVWQMAENIYNDEDPEGSVDPAANKARKEAELAAANAEQ
binding result: binds
